In patent US20180155451A1 (published 2018):

Experiments:
FcγRIa [1] = molecular target: T1, FcγRIa (human, UniProt P12314 16-292); assay: SPR (Biacore); He/Con_1a (FcgRIa) divided by He/Con_2b (FcgRIIb)
T1 construct: extracellular domain; also called FcgRI; FcgRIa
Procedure: The heterodimerized antibodies He Abs in which one of the H chains was introduced with an alteration were assayed for their binding activities to each activating FcγR and inhibitory FcγR according to the method described in Example 4. […] The activating FcγRs in FIGS. 26, 27, 28, and 29 are FcγRIa, FcγRIIa (R), FcγRIIa (H), and FcγRIIIa, respectively.
Analysis of interaction between objective antibody and the FcγR was carried out using Biacore T100 (GE Healthcare). HBS-EP+ (GE Healthcare) was used as the running buffer, and the measurement temperature was set to 25° C. Chips produced by immobilizing the antigen peptide by the amine coupling method to a Series S Sencor Chip CM5 (GE Healthcare), or alternatively, chips produced by allowing preliminarily biotinylated antigen peptides to interact with and immobilize onto a Series S Sensor Chip SA (certified) (GE Healthcare) were used. Antibodies of interest were captured onto an antigen peptide-immobilized chip, and allowed to interact to each FcγR diluted with running buffer. To regenerate and repeatedly use the chip, the antibodies captured on the chip were washed off by reacting 10 mM glycine-HCl, pH 1.5.

FcγRIa [2] = molecular target: T1, FcγRIa; assay: SPR (Biacore), relative to GpH7-A5/GpH7-B3/GpL16-k0 = 100
FcγRIIb = molecular target: T2, FcγRIIb (human, UniProt P31994 43-217); assay: as above
T2 construct: extracellular domain; also called FcgRIIb; 2b
T2 sequence (looked up): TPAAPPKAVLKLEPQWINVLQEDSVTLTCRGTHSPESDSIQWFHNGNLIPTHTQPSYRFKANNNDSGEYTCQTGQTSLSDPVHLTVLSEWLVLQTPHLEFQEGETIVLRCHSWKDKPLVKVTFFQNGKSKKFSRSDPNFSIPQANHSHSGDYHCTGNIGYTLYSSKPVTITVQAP

T1 sequence (P12314 16-292): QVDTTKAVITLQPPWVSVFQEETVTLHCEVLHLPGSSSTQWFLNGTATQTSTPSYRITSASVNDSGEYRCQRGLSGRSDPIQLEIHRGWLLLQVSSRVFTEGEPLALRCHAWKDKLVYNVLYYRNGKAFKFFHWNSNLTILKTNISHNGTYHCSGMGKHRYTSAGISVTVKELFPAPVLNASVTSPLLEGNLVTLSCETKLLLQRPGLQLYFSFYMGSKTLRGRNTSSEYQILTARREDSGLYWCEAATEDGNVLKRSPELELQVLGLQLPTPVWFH

Row | Binder | Ia/IIb He_1a/2b (FcγRIa [1]) | He/Con_1a (Ia binding) (FcγRIa [2]) | He/Con_2b (IIb binding) (FcγRIIb)
1 | GpH7-A5/GpH7-B3 variant S298_09D/GpL16-k0 (antibody, human IgG1, kappa, heterodimerized IgG1, one H chain mutated; also called He Ab) heavy 1: not shown heavy 2: not shown light: DIVMTQSPLSLPVTPGEPASISCQASESLVHSNRNTYLHWYLQKPGQSPQLLIYKVSNRFSGVPDRFSGSGSGTDFTLKISRVEAEDVGVYYCSQNTHVPPTFGQGTKVEIERTVAAPSVFIFPPSDEQLKSGTASVVCLLNNFYPREAKVQWKVDNALQSGNSQESVTEQDSKDSTYSLSSTLTLSKADYEKHKVYACEVTHQGLSSPVTKSFNRGEC | 2.19 | 106 relative (control = 100) | 48.3 relative (control = 100)
2 | GpH7-A5/GpH7-B3 variant S298_12R/GpL16-k0 (antibody, human IgG1, kappa, heterodimerized IgG1, one H chain mutated; also called He Ab) heavy 1: not shown heavy 2: not shown light: DIVMTQSPLSLPVTPGEPASISCQASESLVHSNRNTYLHWYLQKPGQSPQLLIYKVSNRFSGVPDRFSGSGSGTDFTLKISRVEAEDVGVYYCSQNTHVPPTFGQGTKVEIERTVAAPSVFIFPPSDEQLKSGTASVVCLLNNFYPREAKVQWKVDNALQSGNSQESVTEQDSKDSTYSLSSTLTLSKADYEKHKVYACEVTHQGLSSPVTKSFNRGEC | 1.89 | 109 relative (control = 100) | 57.8 relative (control = 100)
3 | GpH7-A5/GpH7-B3 variant S298_19Q/GpL16-k0 (antibody, human IgG1, kappa, heterodimerized IgG1, one H chain mutated; also called He Ab) heavy 1: not shown heavy 2: not shown light: DIVMTQSPLSLPVTPGEPASISCQASESLVHSNRNTYLHWYLQKPGQSPQLLIYKVSNRFSGVPDRFSGSGSGTDFTLKISRVEAEDVGVYYCSQNTHVPPTFGQGTKVEIERTVAAPSVFIFPPSDEQLKSGTASVVCLLNNFYPREAKVQWKVDNALQSGNSQESVTEQDSKDSTYSLSSTLTLSKADYEKHKVYACEVTHQGLSSPVTKSFNRGEC | 1.49 | 109 relative (control = 100) | 73.3 relative (control = 100)
4 | GpH7-A5/GpH7-B3 variant S298_18N/GpL16-k0 (antibody, human IgG1, kappa, heterodimerized IgG1, one H chain mutated; also called He Ab) heavy 1: not shown heavy 2: not shown light: DIVMTQSPLSLPVTPGEPASISCQASESLVHSNRNTYLHWYLQKPGQSPQLLIYKVSNRFSGVPDRFSGSGSGTDFTLKISRVEAEDVGVYYCSQNTHVPPTFGQGTKVEIERTVAAPSVFIFPPSDEQLKSGTASVVCLLNNFYPREAKVQWKVDNALQSGNSQESVTEQDSKDSTYSLSSTLTLSKADYEKHKVYACEVTHQGLSSPVTKSFNRGEC | 2.25 | 108 relative (control = 100) | 48.1 relative (control = 100)
5 | GpH7-A5/GpH7-B3 variant S298_15Y/GpL16-k0 (antibody, human IgG1, kappa, heterodimerized IgG1, one H chain mutated; also called He Ab) heavy 1: not shown heavy 2: not shown light: DIVMTQSPLSLPVTPGEPASISCQASESLVHSNRNTYLHWYLQKPGQSPQLLIYKVSNRFSGVPDRFSGSGSGTDFTLKISRVEAEDVGVYYCSQNTHVPPTFGQGTKVEIERTVAAPSVFIFPPSDEQLKSGTASVVCLLNNFYPREAKVQWKVDNALQSGNSQESVTEQDSKDSTYSLSSTLTLSKADYEKHKVYACEVTHQGLSSPVTKSFNRGEC | 1.75 | 107 relative (control = 100) | 61.4 relative (control = 100)
6 | GpH7-A5/GpH7-B3 variant S324_11K/GpL16-k0 (antibody, human IgG1, kappa, heterodimerized IgG1, one H chain mutated; also called He Ab) heavy 1: not shown heavy 2: not shown light: DIVMTQSPLSLPVTPGEPASISCQASESLVHSNRNTYLHWYLQKPGQSPQLLIYKVSNRFSGVPDRFSGSGSGTDFTLKISRVEAEDVGVYYCSQNTHVPPTFGQGTKVEIERTVAAPSVFIFPPSDEQLKSGTASVVCLLNNFYPREAKVQWKVDNALQSGNSQESVTEQDSKDSTYSLSSTLTLSKADYEKHKVYACEVTHQGLSSPVTKSFNRGEC | 1.49 | 102 relative (control = 100) | 68.6 relative (control = 100)
7 | GpH7-A5/GpH7-B3 variant S298_14T/GpL16-k0 (antibody, human IgG1, kappa, heterodimerized IgG1, one H chain mutated; also called He Ab) heavy 1: not shown heavy 2: not shown light: DIVMTQSPLSLPVTPGEPASISCQASESLVHSNRNTYLHWYLQKPGQSPQLLIYKVSNRFSGVPDRFSGSGSGTDFTLKISRVEAEDVGVYYCSQNTHVPPTFGQGTKVEIERTVAAPSVFIFPPSDEQLKSGTASVVCLLNNFYPREAKVQWKVDNALQSGNSQESVTEQDSKDSTYSLSSTLTLSKADYEKHKVYACEVTHQGLSSPVTKSFNRGEC | 1.37 | 107 relative (control = 100) | 77.9 relative (control = 100)
8 | GpH7-A5/GpH7-B3 variant S298_16H/GpL16-k0 (antibody, human IgG1, kappa, heterodimerized IgG1, one H chain mutated; also called He Ab) heavy 1: not shown heavy 2: not shown light: DIVMTQSPLSLPVTPGEPASISCQASESLVHSNRNTYLHWYLQKPGQSPQLLIYKVSNRFSGVPDRFSGSGSGTDFTLKISRVEAEDVGVYYCSQNTHVPPTFGQGTKVEIERTVAAPSVFIFPPSDEQLKSGTASVVCLLNNFYPREAKVQWKVDNALQSGNSQESVTEQDSKDSTYSLSSTLTLSKADYEKHKVYACEVTHQGLSSPVTKSFNRGEC | 1.71 | 109 relative (control = 100) | 63.5 relative (control = 100)
9 | GpH7-A5/GpH7-B3 variant S324_02A/GpL16-k0 (antibody, human IgG1, kappa, heterodimerized IgG1, one H chain mutated; also called He Ab) heavy 1: not shown heavy 2: not shown light: DIVMTQSPLSLPVTPGEPASISCQASESLVHSNRNTYLHWYLQKPGQSPQLLIYKVSNRFSGVPDRFSGSGSGTDFTLKISRVEAEDVGVYYCSQNTHVPPTFGQGTKVEIERTVAAPSVFIFPPSDEQLKSGTASVVCLLNNFYPREAKVQWKVDNALQSGNSQESVTEQDSKDSTYSLSSTLTLSKADYEKHKVYACEVTHQGLSSPVTKSFNRGEC | 1.31 | 103 relative (control = 100) | 78.3 relative (control = 100)
10 | GpH7-A5/GpH7-B3 variant S324_01G/GpL16-k0 (antibody, human IgG1, kappa, heterodimerized IgG1, one H chain mutated; also called He Ab) heavy 1: not shown heavy 2: not shown light: DIVMTQSPLSLPVTPGEPASISCQASESLVHSNRNTYLHWYLQKPGQSPQLLIYKVSNRFSGVPDRFSGSGSGTDFTLKISRVEAEDVGVYYCSQNTHVPPTFGQGTKVEIERTVAAPSVFIFPPSDEQLKSGTASVVCLLNNFYPREAKVQWKVDNALQSGNSQESVTEQDSKDSTYSLSSTLTLSKADYEKHKVYACEVTHQGLSSPVTKSFNRGEC | 1.22 | 98.8 relative (control = 100) | 81.1 relative (control = 100)
11 | GpH7-A5/GpH7-B3 variant S324_12R/GpL16-k0 (antibody, human IgG1, kappa, heterodimerized IgG1, one H chain mutated; also called He Ab) heavy 1: not shown heavy 2: not shown light: DIVMTQSPLSLPVTPGEPASISCQASESLVHSNRNTYLHWYLQKPGQSPQLLIYKVSNRFSGVPDRFSGSGSGTDFTLKISRVEAEDVGVYYCSQNTHVPPTFGQGTKVEIERTVAAPSVFIFPPSDEQLKSGTASVVCLLNNFYPREAKVQWKVDNALQSGNSQESVTEQDSKDSTYSLSSTLTLSKADYEKHKVYACEVTHQGLSSPVTKSFNRGEC | 1.61 | 102 relative (control = 100) | 63.1 relative (control = 100)
12 | GpH7-A5/GpH7-B3 variant S324_09D/GpL16-k0 (antibody, human IgG1, kappa, heterodimerized IgG1, one H chain mutated; also called He Ab) heavy 1: not shown heavy 2: not shown light: DIVMTQSPLSLPVTPGEPASISCQASESLVHSNRNTYLHWYLQKPGQSPQLLIYKVSNRFSGVPDRFSGSGSGTDFTLKISRVEAEDVGVYYCSQNTHVPPTFGQGTKVEIERTVAAPSVFIFPPSDEQLKSGTASVVCLLNNFYPREAKVQWKVDNALQSGNSQESVTEQDSKDSTYSLSSTLTLSKADYEKHKVYACEVTHQGLSSPVTKSFNRGEC | 1.21 | 104 relative (control = 100) | 85.8 relative (control = 100)
13 | GpH7-A5/GpH7-B3 variant S324_10E/GpL16-k0 (antibody, human IgG1, kappa, heterodimerized IgG1, one H chain mutated; also called He Ab) heavy 1: not shown heavy 2: not shown light: DIVMTQSPLSLPVTPGEPASISCQASESLVHSNRNTYLHWYLQKPGQSPQLLIYKVSNRFSGVPDRFSGSGSGTDFTLKISRVEAEDVGVYYCSQNTHVPPTFGQGTKVEIERTVAAPSVFIFPPSDEQLKSGTASVVCLLNNFYPREAKVQWKVDNALQSGNSQESVTEQDSKDSTYSLSSTLTLSKADYEKHKVYACEVTHQGLSSPVTKSFNRGEC | 1.35 | 105 relative (control = 100) | 77.4 relative (control = 100)
14 | GpH7-A5/GpH7-B3 variant S298_20W/GpL16-k0 (antibody, human IgG1, kappa, heterodimerized IgG1, one H chain mutated; also called He Ab) heavy 1: not shown heavy 2: not shown light: DIVMTQSPLSLPVTPGEPASISCQASESLVHSNRNTYLHWYLQKPGQSPQLLIYKVSNRFSGVPDRFSGSGSGTDFTLKISRVEAEDVGVYYCSQNTHVPPTFGQGTKVEIERTVAAPSVFIFPPSDEQLKSGTASVVCLLNNFYPREAKVQWKVDNALQSGNSQESVTEQDSKDSTYSLSSTLTLSKADYEKHKVYACEVTHQGLSSPVTKSFNRGEC | 2.53 | 104 relative (control = 100) | 41.1 relative (control = 100)
15 | GpH7-A5/GpH7-B3 variant S298_10E/GpL16-k0 (antibody, human IgG1, kappa, heterodimerized IgG1, one H chain mutated; also called He Ab) heavy 1: not shown heavy 2: not shown light: DIVMTQSPLSLPVTPGEPASISCQASESLVHSNRNTYLHWYLQKPGQSPQLLIYKVSNRFSGVPDRFSGSGSGTDFTLKISRVEAEDVGVYYCSQNTHVPPTFGQGTKVEIERTVAAPSVFIFPPSDEQLKSGTASVVCLLNNFYPREAKVQWKVDNALQSGNSQESVTEQDSKDSTYSLSSTLTLSKADYEKHKVYACEVTHQGLSSPVTKSFNRGEC | 2.28 | 108 relative (control = 100) | 47.6 relative (control = 100)
16 | GpH7-A5/GpH7-B3 variant S298_11K/GpL16-k0 (antibody, human IgG1, kappa, heterodimerized IgG1, one H chain mutated; also called He Ab) heavy 1: not shown heavy 2: not shown light: DIVMTQSPLSLPVTPGEPASISCQASESLVHSNRNTYLHWYLQKPGQSPQLLIYKVSNRFSGVPDRFSGSGSGTDFTLKISRVEAEDVGVYYCSQNTHVPPTFGQGTKVEIERTVAAPSVFIFPPSDEQLKSGTASVVCLLNNFYPREAKVQWKVDNALQSGNSQESVTEQDSKDSTYSLSSTLTLSKADYEKHKVYACEVTHQGLSSPVTKSFNRGEC | 1.78 | 109 relative (control = 100) | 61.3 relative (control = 100)
